Measured values from article PMC2552378.

What was measured:
Assay in all cases: purified protein
purified protein [1] = substrate: C[N+](C)(C)CCO; format: biochemical, Trypanosoma brucei; conditions: 5 mM ATP, 6 mM MgCl2, 150 mM KCl, 50 mM Mops pH 7.8
purified protein [2] = substrate: NCCO; format: biochemical, Trypanosoma brucei; conditions: 5 mM ATP, 6 mM MgCl2, 150 mM KCl, 50 mM Mops pH 7.8
purified protein [3] = substrate: Nc1ncnc2c1ncn2[C@@H]1O[C@H](COP(=O)(O)OP(=O)(O)OP(=O)(O)O)[C@@H](O)[C@H]1O; conditions: 6 mM MgCl2, 150 mM KCl, 50 mM Mops pH 7.8

| Protein | Km (purified protein [1]) | kcat (purified protein [1]) | kcat/Km (purified protein [1]) | Km (purified protein [2]) | kcat (purified protein [2]) | kcat/Km (purified protein [2]) | Km (purified protein [3]; 2 mM choline) | kcat (purified protein [3]; 2 mM choline) | kcat/Km (purified protein [3]; 2 mM choline) | Km (purified protein [3]; 2 mM ethanolamine) | kcat (purified protein [3]; 2 mM ethanolamine) | kcat/Km (purified protein [3]; 2 mM ethanolamine) |
| --- | --- | --- | --- | --- | --- | --- | --- | --- | --- | --- | --- | --- |
| TbC/EK2 (Trypanosoma brucei brucei TREU927) (protein) MALRPFPLGNTPLHAVIRRSAREFECVEAVPASNAVRSPSTASWVSAESLDSIISLANRTSEEMEVDQLIYRLCRSLYHVAKKKSAQIHCHPNHQERQQQQQQASSSGWRSVECEGHFSNMRGREDWCPLLHLFDPRSYYKVMGQPSQHDGCKLCGDVVGTESSPEGVSQWLMSELSVTRLTGGNSNHVYRLGHASFPKKAVLLRVYGDGGGGDVIDRARDIKVMRLMSKSEMGPGLLHTFHWGRVEEFMDGVLTCTTEKLLTSPSLLADVYGGLSKMHQLDYTPLLPENMRTKGMSNGHNSSQSVSDTVSKSGGGQEGPDGTVGGVNELESTCHTSFERVCLRLLRLVSLNVVEEHRHSLESWLAGEVMFVRRELQYRGIPVVLSHNDLNPGNILLSDGAGEASGTVFSDEELRVENTPLSKRYVTRKGKNMNLVERRGFLFIDFEYADANYRCFDLGNTLCELDYDYTRGTEAGGRGFIKYLFVFPPPAMEEAWRGLGEEYPRMPELIYDAWRRGVCDGSSDIGSVALLAVRRYFAERDNVPLETVELSEAQVGEVLLGMLASHLYWTIWSMTMGSAPDNCVECEDCDDQMFAVGGSGLDYMRYGECRLREYIALRGWLAEKGLLS | 31.4 ± 2.6 µM | 12.91 s⁻¹ | 411000 M⁻¹ s⁻¹ | 2560 ± 310 µM | 12.91 s⁻¹ | 5040 M⁻¹ s⁻¹ | 20.6 ± 1.96 µM | 12.91 s⁻¹ | 627000 M⁻¹ s⁻¹ | – | – | – |
| TbEK1 (formerly TbC/EK1) (Trypanosoma brucei brucei TREU927) (protein) MEVAVGHVRHVPCTVPDDPASRMRAIREIVARHCALFMQKGGDVGRSQCASNLGNNITSGTSNGFDADRLQVVAFSGGITNEMYHVYCEGWEAHSVVMRIFGKETERVISRGDELFYQSLFIPTYVRGQNFLVYQYLYQYEPLPFVEMVKEYEKIARGIAFFHVRATLEARSDYSVTPVGGVVGAGGATVGPTNTCSRFDLEENYIVHSLTEWVEQALSETVQEKVDATKRATYASVAQQLKEEAQWLLPLMQRHSPELGESTCHNDLLSGNIMRQKSDGALKIIDFEYAKRNYFLFDIANHFNEYTGLECDYATYFPSEEHMKKFVTTYMCAMREELEKHAEEAKRRQLTDIIPGQQHFFMCDVGGVEGDKRIHRMVQLVKLLTLASHLSWSVWALLQEAVSKTDMDFLRYSQLRLSRYLETRKEFSASS | – | – | – | 18.4 ± 0.9 µM | 6.56 s⁻¹ | 357000 M⁻¹ s⁻¹ | – | – | – | 219.2 ± 29 µM | 6.56 s⁻¹ | 29900 M⁻¹ s⁻¹ |
